In one experiment the test system is PANC1 spheroids. Briefly: 3D-spheroid growth assay, PANC1. It counts as cell-based, human. To be noted: 3D floating PANC1 spheroids, 0.5 µM, treated day 0, 2, 4, 7, 9 over 10 days; vs vehicle [0.2% DMSO] and DRx-150 [10 µM]; n = 5. As to the method: PANC1 cells were seeded at 2 × 10^3 in wells of a round bottom Nunclon™ Sphera™ 96 well-plate with ultra-low attachment coating (Thermo; #174925), containing 200 μL DMEM (2% FBS, 2 mM L-glutamine, 100 U/I Pen-Strep). To encourage spheroid formation, PANC1 cells were centrifuged at 250 × g for 10 min at room temperature. PANC1 spheroids were then allowed to grow for 3 days at 37 °C, 5% CO2, humidified air. Spheroids were then treated with appropriate concentration of DRx-peptide/afatinib by first removing 100 μL of media from each well (careful not to disturb spheroid), followed by addition of 100 μL drug at 2× concentration. Cells were treated five times over a 10 day period (day 0, 2, 4, 7 and 9). Spheroids were imaged on day 0, 2, 4, 7 and 10 using a Nikon Eclipse TS2 microscope and spheroid area quantified using Image J software. Data represented as a fold-difference of relative day 0 spheroid measurement (i.e., day 0 normalised to 1).

The target of experiment [1] is T1, full-length human PDE8A1-MBP (human, UniProt O60658-1 1-829).
T1 construct: Phosphodiesterase 8A, isoform PDE8A1, human, full length; the tag was detected with an anti-MBP-HRP antibody (Abcam ab49923); also called human recombinant PDE8A1-MBP; source: recombinant
Briefly: peptide or protein array; human c-RAF 20mer peptides SPOT-synthesised on cellulose membrane; far western approach: 0.1 μM PDE8A1-MBP overnight at 4 °C in 1x TBS, 5% glycerol, pH 7.4; detected with αMBP-HRP and ECL; MBP alone as negative control; signal normalised to the strongest binding peptide. The settings on record: both partners purified.

The record followed here is article PMC11026450 (Scientific Reports, 2024).

T1 sequence (O60658 whole entry, canonical isoform): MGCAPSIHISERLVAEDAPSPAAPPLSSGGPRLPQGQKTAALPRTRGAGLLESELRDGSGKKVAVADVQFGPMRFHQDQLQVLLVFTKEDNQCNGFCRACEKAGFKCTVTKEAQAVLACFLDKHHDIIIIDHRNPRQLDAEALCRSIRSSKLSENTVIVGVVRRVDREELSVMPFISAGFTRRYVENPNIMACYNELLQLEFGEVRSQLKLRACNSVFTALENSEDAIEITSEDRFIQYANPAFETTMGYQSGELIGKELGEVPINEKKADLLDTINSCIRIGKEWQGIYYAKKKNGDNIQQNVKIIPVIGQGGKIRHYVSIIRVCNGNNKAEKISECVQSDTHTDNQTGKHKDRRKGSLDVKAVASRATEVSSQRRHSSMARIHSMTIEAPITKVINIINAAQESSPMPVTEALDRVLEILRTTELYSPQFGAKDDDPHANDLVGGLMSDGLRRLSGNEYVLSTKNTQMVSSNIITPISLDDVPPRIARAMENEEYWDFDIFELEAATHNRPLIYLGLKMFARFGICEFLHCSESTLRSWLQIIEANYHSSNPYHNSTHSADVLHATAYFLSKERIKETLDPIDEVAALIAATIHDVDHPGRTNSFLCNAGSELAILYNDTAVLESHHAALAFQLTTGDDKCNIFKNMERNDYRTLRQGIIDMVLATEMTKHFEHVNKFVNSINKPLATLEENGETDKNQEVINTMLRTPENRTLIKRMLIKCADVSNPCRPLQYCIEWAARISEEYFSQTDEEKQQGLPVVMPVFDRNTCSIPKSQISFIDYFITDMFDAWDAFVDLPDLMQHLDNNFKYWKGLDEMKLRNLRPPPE

As for `CN(C)C/C=C/C(=O)Nc1cc2c(Nc3ccc(F)c(Cl)c3)ncnc2cc1O[C@H]1CCOC1` [afatinib, afatinib dimaleate], the “relative spheroid area (fold-difference vs. Day 0)” value in the experiment on PANC1 spheroids is on record as “significantly attenuated”.

B1: human c-RAF peptide 49 (N241–T260) (peptide, UniProt P04049 241-260, looked up)
peptide: NTSSPSSEGSLSQRQRSTST
notes: c-RAF, human, 20mer of the peptide array, residues N241–T260; source: synthetic peptide, SPOT synthesis on cellulose membrane
Consider B1, for which the binding result in experiment [1] is recorded as “binds”.

B2: human c-RAF peptide 8 (F36–S55) (peptide, UniProt P04049 36-55, looked up)
peptide: FGYQRRASDDGKLTDPSKTS
notes: c-RAF, human, 20mer of the peptide array, residues F36–S55; source: synthetic peptide, SPOT synthesis on cellulose membrane
With B2, the binding result in experiment [1] is listed as “binds”.

B3: human c-RAF peptide 117 (M581–P600) (peptide, UniProt P04049 581-600, looked up)
peptide: MKRLVADCVKKVKEERPLFP
notes: c-RAF, human, 20mer of the peptide array, residues M581–P600; source: synthetic peptide, SPOT synthesis on cellulose membrane
For the molecule B3, the binding result in experiment [1] was “binds”.

B4: human c-RAF peptide 123 (H611–H630) (peptide, UniProt P04049 611-630, looked up)
peptide: HSLPKINRSASEPSLHRAAH
notes: c-RAF, human, 20mer of the peptide array, residues H611–H630; source: synthetic peptide, SPOT synthesis on cellulose membrane
For B4, the binding result in experiment [1] was “binds”.
